Assay [1] has as its target group M consensus gp140 Env, CON-S gp140CFI, WT glycosylated (HIV-1 group M consensus). Kind of assay: SPR. Background: In SPR one partner is held on a chip, and binding of the other changes the refractive index at the surface.
Substrate in the assay “SPR”: CON-S gp140CFI Env, natively deglycosylated with PNGase F 500 U per µg (HIV-1 group M consensus)
As to the kind of experiment: SPR.

B1: 2F5 reverted unmutated ancestor antibody RUA1 (antibody, V domains shown)
VH: QITLKESGPTLVKPTQTLTLTCTFSGFSLSTSGVGVGWIRQPPGKALEWLALIYWNDDKRYSPSLKSRLTITKDTSKNQVVLTMTNMDPVDTATYYCAHRRGPTTLFGVVIARGPVNGMDVWGQGTTVTVSS
VL: AIQLTQSPSSLSASVGDRVTITCRASQGISSALAWYQQKPGKAPKLLIYDASSLESGVPSRFSGSGSGTDFTLTISSLQPEDFATYYCQQFNNYPHTFGGGTKVEIK
With B1, the equilibrium dissociation constant (Kd) was 118 nM in assay [1] and 67 nM in “SPR”.

B2: 2F5 reverted unmutated ancestor antibody RUA2 (antibody, V domains shown)
VH: QITLKESGPTLVKPTQTLTLTCTFSGFSLSTSGVGVGWIRQPPGKALEWLALIYWDDDKRYGPSLKSRLTITKDTSKNQVVLTMTNMDPVDTATYYCAHRRGPTTLFGVVIARGPVNGMDVWGQGTTVTVSS
VL: AIQLTQSPSSLSASVGDRVTITCRASQGISSALAWYQQKPGKAPKLLIYDASSLESGVPSRFSGSGSGTDFTLTISSLQPEDFATYYCQQFNNYPHTFGGGTKVEIK
Take B2: the Kd came to 4000 nM in assay [1] and 360 nM in the assay “SPR”.

What is called Kd is the equilibrium constant for the complex coming apart.

The values are drawn from article PMC3164629.
